Source: patent publication US20210388087A1 (Chugai, published 2021)

T1: Human CD3eg linker (human)
T1 construct: Single-chain construct; also called recombinant human CD3
T1 chain: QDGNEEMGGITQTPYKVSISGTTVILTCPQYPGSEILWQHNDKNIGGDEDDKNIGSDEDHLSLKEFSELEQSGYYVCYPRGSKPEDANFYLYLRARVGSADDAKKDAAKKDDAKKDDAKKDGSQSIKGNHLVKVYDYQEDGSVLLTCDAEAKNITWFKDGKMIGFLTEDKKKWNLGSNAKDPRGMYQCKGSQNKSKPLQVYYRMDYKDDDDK


Biological target: T1, Human CD3eg linker
Experiment: SPR; fold vs parent H183/L072

Binder	fold change of affinity
H183/L072 VL N30I (antibody, name in Kabat numbering, V domains shown) VH: QVQLVESGGGLVQPGRSLRLSCAASGFTFSNAWMHWVRQAPGKGLEWVAQIKDKGNAYAAYYAPSVKGRFTISRDDSKNSIYLQMNSLKTEDTAVYYCHYVHYASASTVLPAFGVDAWGQGTTVTVSS VL: DIVMTQSPLSLPVTPGEPASISCQASQELVHMNRITYLHWYQQKPGQAPRLLIYKVSNRFPGVPDRFSGSGSGTDFTLKISRVEAEDVGVYYCAQGTSVPFTFGQGTKLEIK	0.5 fold
H183/L072 VL N53D (antibody, name in Kabat numbering, V domains shown) VH: QVQLVESGGGLVQPGRSLRLSCAASGFTFSNAWMHWVRQAPGKGLEWVAQIKDKGNAYAAYYAPSVKGRFTISRDDSKNSIYLQMNSLKTEDTAVYYCHYVHYASASTVLPAFGVDAWGQGTTVTVSS VL: DIVMTQSPLSLPVTPGEPASISCQASQELVHMNRNTYLHWYQQKPGQAPRLLIYKVSDRFPGVPDRFSGSGSGTDFTLKISRVEAEDVGVYYCAQGTSVPFTFGQGTKLEIK	0.2 fold
H183/L072 VL N53M (antibody, name in Kabat numbering, V domains shown) VH: QVQLVESGGGLVQPGRSLRLSCAASGFTFSNAWMHWVRQAPGKGLEWVAQIKDKGNAYAAYYAPSVKGRFTISRDDSKNSIYLQMNSLKTEDTAVYYCHYVHYASASTVLPAFGVDAWGQGTTVTVSS VL: DIVMTQSPLSLPVTPGEPASISCQASQELVHMNRNTYLHWYQQKPGQAPRLLIYKVSMRFPGVPDRFSGSGSGTDFTLKISRVEAEDVGVYYCAQGTSVPFTFGQGTKLEIK	0.9 fold
H183/L072 VL N30Y (antibody, name in Kabat numbering, V domains shown) VH: QVQLVESGGGLVQPGRSLRLSCAASGFTFSNAWMHWVRQAPGKGLEWVAQIKDKGNAYAAYYAPSVKGRFTISRDDSKNSIYLQMNSLKTEDTAVYYCHYVHYASASTVLPAFGVDAWGQGTTVTVSS VL: DIVMTQSPLSLPVTPGEPASISCQASQELVHMNRYTYLHWYQQKPGQAPRLLIYKVSNRFPGVPDRFSGSGSGTDFTLKISRVEAEDVGVYYCAQGTSVPFTFGQGTKLEIK	0.8 fold
H183/L072 VL N30T (antibody, name in Kabat numbering, V domains shown) VH: QVQLVESGGGLVQPGRSLRLSCAASGFTFSNAWMHWVRQAPGKGLEWVAQIKDKGNAYAAYYAPSVKGRFTISRDDSKNSIYLQMNSLKTEDTAVYYCHYVHYASASTVLPAFGVDAWGQGTTVTVSS VL: DIVMTQSPLSLPVTPGEPASISCQASQELVHMNRTTYLHWYQQKPGQAPRLLIYKVSNRFPGVPDRFSGSGSGTDFTLKISRVEAEDVGVYYCAQGTSVPFTFGQGTKLEIK	0.1 fold
H183/L072 VL N53G (antibody, name in Kabat numbering, V domains shown) VH: QVQLVESGGGLVQPGRSLRLSCAASGFTFSNAWMHWVRQAPGKGLEWVAQIKDKGNAYAAYYAPSVKGRFTISRDDSKNSIYLQMNSLKTEDTAVYYCHYVHYASASTVLPAFGVDAWGQGTTVTVSS VL: DIVMTQSPLSLPVTPGEPASISCQASQELVHMNRNTYLHWYQQKPGQAPRLLIYKVSGRFPGVPDRFSGSGSGTDFTLKISRVEAEDVGVYYCAQGTSVPFTFGQGTKLEIK	0.6 fold
H183/L072 VL N30W (antibody, name in Kabat numbering, V domains shown) VH: QVQLVESGGGLVQPGRSLRLSCAASGFTFSNAWMHWVRQAPGKGLEWVAQIKDKGNAYAAYYAPSVKGRFTISRDDSKNSIYLQMNSLKTEDTAVYYCHYVHYASASTVLPAFGVDAWGQGTTVTVSS VL: DIVMTQSPLSLPVTPGEPASISCQASQELVHMNRWTYLHWYQQKPGQAPRLLIYKVSNRFPGVPDRFSGSGSGTDFTLKISRVEAEDVGVYYCAQGTSVPFTFGQGTKLEIK	0.9 fold
H183/L072 VL N53A (antibody, name in Kabat numbering, V domains shown) VH: QVQLVESGGGLVQPGRSLRLSCAASGFTFSNAWMHWVRQAPGKGLEWVAQIKDKGNAYAAYYAPSVKGRFTISRDDSKNSIYLQMNSLKTEDTAVYYCHYVHYASASTVLPAFGVDAWGQGTTVTVSS VL: DIVMTQSPLSLPVTPGEPASISCQASQELVHMNRNTYLHWYQQKPGQAPRLLIYKVSARFPGVPDRFSGSGSGTDFTLKISRVEAEDVGVYYCAQGTSVPFTFGQGTKLEIK	0.6 fold
H183/L072 VL N53L (antibody, name in Kabat numbering, V domains shown) VH: QVQLVESGGGLVQPGRSLRLSCAASGFTFSNAWMHWVRQAPGKGLEWVAQIKDKGNAYAAYYAPSVKGRFTISRDDSKNSIYLQMNSLKTEDTAVYYCHYVHYASASTVLPAFGVDAWGQGTTVTVSS VL: DIVMTQSPLSLPVTPGEPASISCQASQELVHMNRNTYLHWYQQKPGQAPRLLIYKVSLRFPGVPDRFSGSGSGTDFTLKISRVEAEDVGVYYCAQGTSVPFTFGQGTKLEIK	0.6 fold
H183/L072 VL N53F (antibody, name in Kabat numbering, V domains shown) VH: QVQLVESGGGLVQPGRSLRLSCAASGFTFSNAWMHWVRQAPGKGLEWVAQIKDKGNAYAAYYAPSVKGRFTISRDDSKNSIYLQMNSLKTEDTAVYYCHYVHYASASTVLPAFGVDAWGQGTTVTVSS VL: DIVMTQSPLSLPVTPGEPASISCQASQELVHMNRNTYLHWYQQKPGQAPRLLIYKVSFRFPGVPDRFSGSGSGTDFTLKISRVEAEDVGVYYCAQGTSVPFTFGQGTKLEIK	0.7 fold
H183/L072 VL N30S (antibody, name in Kabat numbering, V domains shown) VH: QVQLVESGGGLVQPGRSLRLSCAASGFTFSNAWMHWVRQAPGKGLEWVAQIKDKGNAYAAYYAPSVKGRFTISRDDSKNSIYLQMNSLKTEDTAVYYCHYVHYASASTVLPAFGVDAWGQGTTVTVSS VL: DIVMTQSPLSLPVTPGEPASISCQASQELVHMNRSTYLHWYQQKPGQAPRLLIYKVSNRFPGVPDRFSGSGSGTDFTLKISRVEAEDVGVYYCAQGTSVPFTFGQGTKLEIK	0 fold
H183/L072 VL N30M (antibody, name in Kabat numbering, V domains shown) VH: QVQLVESGGGLVQPGRSLRLSCAASGFTFSNAWMHWVRQAPGKGLEWVAQIKDKGNAYAAYYAPSVKGRFTISRDDSKNSIYLQMNSLKTEDTAVYYCHYVHYASASTVLPAFGVDAWGQGTTVTVSS VL: DIVMTQSPLSLPVTPGEPASISCQASQELVHMNRMTYLHWYQQKPGQAPRLLIYKVSNRFPGVPDRFSGSGSGTDFTLKISRVEAEDVGVYYCAQGTSVPFTFGQGTKLEIK	1.6 fold
H183/L072 VL N53H (antibody, name in Kabat numbering, V domains shown) VH: QVQLVESGGGLVQPGRSLRLSCAASGFTFSNAWMHWVRQAPGKGLEWVAQIKDKGNAYAAYYAPSVKGRFTISRDDSKNSIYLQMNSLKTEDTAVYYCHYVHYASASTVLPAFGVDAWGQGTTVTVSS VL: DIVMTQSPLSLPVTPGEPASISCQASQELVHMNRNTYLHWYQQKPGQAPRLLIYKVSHRFPGVPDRFSGSGSGTDFTLKISRVEAEDVGVYYCAQGTSVPFTFGQGTKLEIK	1.2 fold
H183/L072 VL N30K (antibody, name in Kabat numbering, V domains shown) VH: QVQLVESGGGLVQPGRSLRLSCAASGFTFSNAWMHWVRQAPGKGLEWVAQIKDKGNAYAAYYAPSVKGRFTISRDDSKNSIYLQMNSLKTEDTAVYYCHYVHYASASTVLPAFGVDAWGQGTTVTVSS VL: DIVMTQSPLSLPVTPGEPASISCQASQELVHMNRKTYLHWYQQKPGQAPRLLIYKVSNRFPGVPDRFSGSGSGTDFTLKISRVEAEDVGVYYCAQGTSVPFTFGQGTKLEIK	1.3 fold
H183/L072 VL N30V (antibody, name in Kabat numbering, V domains shown) VH: QVQLVESGGGLVQPGRSLRLSCAASGFTFSNAWMHWVRQAPGKGLEWVAQIKDKGNAYAAYYAPSVKGRFTISRDDSKNSIYLQMNSLKTEDTAVYYCHYVHYASASTVLPAFGVDAWGQGTTVTVSS VL: DIVMTQSPLSLPVTPGEPASISCQASQELVHMNRVTYLHWYQQKPGQAPRLLIYKVSNRFPGVPDRFSGSGSGTDFTLKISRVEAEDVGVYYCAQGTSVPFTFGQGTKLEIK	0.5 fold
H183/L072 VL N30R (antibody, name in Kabat numbering, V domains shown) VH: QVQLVESGGGLVQPGRSLRLSCAASGFTFSNAWMHWVRQAPGKGLEWVAQIKDKGNAYAAYYAPSVKGRFTISRDDSKNSIYLQMNSLKTEDTAVYYCHYVHYASASTVLPAFGVDAWGQGTTVTVSS VL: DIVMTQSPLSLPVTPGEPASISCQASQELVHMNRRTYLHWYQQKPGQAPRLLIYKVSNRFPGVPDRFSGSGSGTDFTLKISRVEAEDVGVYYCAQGTSVPFTFGQGTKLEIK	1.5 fold
H183/L072 VL N30L (antibody, name in Kabat numbering, V domains shown) VH: QVQLVESGGGLVQPGRSLRLSCAASGFTFSNAWMHWVRQAPGKGLEWVAQIKDKGNAYAAYYAPSVKGRFTISRDDSKNSIYLQMNSLKTEDTAVYYCHYVHYASASTVLPAFGVDAWGQGTTVTVSS VL: DIVMTQSPLSLPVTPGEPASISCQASQELVHMNRLTYLHWYQQKPGQAPRLLIYKVSNRFPGVPDRFSGSGSGTDFTLKISRVEAEDVGVYYCAQGTSVPFTFGQGTKLEIK	0.5 fold
H183/L072 VL N30Q (antibody, name in Kabat numbering, V domains shown) VH: QVQLVESGGGLVQPGRSLRLSCAASGFTFSNAWMHWVRQAPGKGLEWVAQIKDKGNAYAAYYAPSVKGRFTISRDDSKNSIYLQMNSLKTEDTAVYYCHYVHYASASTVLPAFGVDAWGQGTTVTVSS VL: DIVMTQSPLSLPVTPGEPASISCQASQELVHMNRQTYLHWYQQKPGQAPRLLIYKVSNRFPGVPDRFSGSGSGTDFTLKISRVEAEDVGVYYCAQGTSVPFTFGQGTKLEIK	1.2 fold
H183/L072 VL N53K (antibody, name in Kabat numbering, V domains shown) VH: QVQLVESGGGLVQPGRSLRLSCAASGFTFSNAWMHWVRQAPGKGLEWVAQIKDKGNAYAAYYAPSVKGRFTISRDDSKNSIYLQMNSLKTEDTAVYYCHYVHYASASTVLPAFGVDAWGQGTTVTVSS VL: DIVMTQSPLSLPVTPGEPASISCQASQELVHMNRNTYLHWYQQKPGQAPRLLIYKVSKRFPGVPDRFSGSGSGTDFTLKISRVEAEDVGVYYCAQGTSVPFTFGQGTKLEIK	1.4 fold
H183/L072 VL N53E (antibody, name in Kabat numbering, V domains shown) VH: QVQLVESGGGLVQPGRSLRLSCAASGFTFSNAWMHWVRQAPGKGLEWVAQIKDKGNAYAAYYAPSVKGRFTISRDDSKNSIYLQMNSLKTEDTAVYYCHYVHYASASTVLPAFGVDAWGQGTTVTVSS VL: DIVMTQSPLSLPVTPGEPASISCQASQELVHMNRNTYLHWYQQKPGQAPRLLIYKVSERFPGVPDRFSGSGSGTDFTLKISRVEAEDVGVYYCAQGTSVPFTFGQGTKLEIK	0.5 fold
